From patent publication US20240336909A1 (HARPOON THERAPEUTICS, published 2024)

T1: human EpCAM protein (human, UniProt P16422 24-265)
T1 construct: biotinylated in the Octet assays; also called hu EpCAM; biotinylated human EpCAM protein
T1 sequence (looked up): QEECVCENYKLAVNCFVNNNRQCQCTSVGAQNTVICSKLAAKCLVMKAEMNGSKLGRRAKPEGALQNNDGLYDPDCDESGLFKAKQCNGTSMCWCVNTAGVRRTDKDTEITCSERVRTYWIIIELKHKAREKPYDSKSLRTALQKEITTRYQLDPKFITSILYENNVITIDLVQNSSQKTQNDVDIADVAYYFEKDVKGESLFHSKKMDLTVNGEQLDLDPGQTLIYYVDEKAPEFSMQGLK

B1: Llama anti-EpCAM single domain antibody EPL152 (VHH)
VHH: QVQLQESGGGLVQAGGSLRLSCVHSGSIFRASTMAWYRQAPGKQRELVAQIMSGGGTNYAGSVKGRFTISRDNANNTVYLQMNSLKPEDTAVYYCNAAQITSWGPKVYWGQGTQVTVSS
notes: E. coli periplasmic extract
B2: Llama anti-EpCAM single domain antibody EPL10 (VHH)
VHH: QVQLQESGGGLVQAGGSLRLSCAASGSVFRANVMGWYRQAPGKQHELVARIDPGGTTTYADPVKGRFTISRDNAKKTVYLQMNSLKPDDTAVYYCNAIILLSGGPKDYWGQGTQVTVSS
notes: E. coli periplasmic extract
B3: Llama anti-EpCAM single domain antibody EPL159 (VHH)
VHH: QVQLQESGGGLVQAGGSLRLSCAASGFAFGNHWMYWYRQAPGRGRELVASISSGGSTNYVDSVKGRFTISRDNARNTVYLQMYSLKPEDTAVYYCGTSDNWGQGTQVTVSS
notes: E. coli periplasmic extract
B4: Llama anti-EpCAM single domain antibody EPL127 (VHH)
VHH: QVQLQESGGGLVQAGGSLRLSCAAPGFAFNDHAILWFRQAPGKEREGVSEICRDGTTYYTDSVKGRFTISSDNAKNTVYLQMNSVKTDDTAVYYCAVDRRRYYCSGNRAFSSDYYYWGQGTQVTVSS
notes: E. coli periplasmic extract
B5: Llama anti-EpCAM single domain antibody EPL2 (VHH)
VHH: QVQLQESGGGLVQPGGSLRLSCAASESISSFIAVGWYRQAPGKERELVAGINRSGFTYYTDSVKGRFSISRDNAKNTVLLQMTSLKPEDTAVYYCNAGGLYFSNAYTQGDYWGQGTQVTVSS
notes: E. coli periplasmic extract
B6: Llama anti-EpCAM single domain antibody EPL43 (VHH)
VHH: QVQLQESGGGLVQTGGSLRLSCAASESISSFIAVGWYRQAPGKERELVAGINRSGFTYYTDSVKGRFSISRDNAKNTVLLQMTSLKPEDTAVYYCNAGGLYFSNAYTQGDYWGQGTQVTVSS
notes: E. coli periplasmic extract
B7: Llama anti-EpCAM single domain antibody EPL97 (VHH)
VHH: QVQLQESGGGLVQAGGSLRLSCAASGIIFRGTTMGWFRQAPGKQRESVASISPLGTTSYSGSVEGRFTVSRDNAKNTLFLQMNSLKSEDTAVYYCNAIQVTNVGPRVYWGQGTQVTVSS
notes: E. coli periplasmic extract
B8: Llama anti-EpCAM single domain antibody EPL145 (VHH)
VHH: QVQLQESGGGLVQAGGSLRLSCAASGFIFRAASMGWFRQSPGNERELVATVSSGGFTNYADSVKGRFTISRDNAKNTVYLQMNSLKPEDTAVYFCGATFVRSDGHHTIYGQGTQVTVSS
notes: E. coli periplasmic extract
B9: Llama anti-EpCAM single domain antibody EPL164 (VHH)
VHH: QVQLQESGGGLVQAGGSLRLSCAASGFIFRAASMDWYRQSPGTQPELVATISSTGFTNYANSVKGRFTISRDNAKNTVYLQMNSLKPEDTAVYFCGATFLRSDGQHSIYGQGTQVTVSS
notes: E. coli periplasmic extract
B10: Llama anti-EpCAM single domain antibody EPL138 (VHH)
VHH: QVQLQESGGGLVQAGGSLRLSCAASGFIFRAASMDWYRQFPGNERESIATISSGGFTNYADSVKGRFTISRDNAKNTVYLQMNSLKPEDTAVYFCGATFLRSDGHHTINGQGTQVTVSS
notes: E. coli periplasmic extract
B11: Llama anti-EpCAM single domain antibody EPL118 (VHH)
VHH: QVQLQESGGGLVQAGGSLRLSCAASGFIFRAASMGWFRQSPGNERELVATVSSGDFTNYADSVKGRFTISRDNAKNTVYLQMNSLKPEDTAVYFCGATFVRSDGHHTIYGQGTQVTVSS
notes: E. coli periplasmic extract
B12: Llama anti-EpCAM single domain antibody EPL126 (VHH)
VHH: QVQLQESGGGLVQAGGSLRLSCAASGFIFRAASMGWYRQSPGNERELVATINSGGFTNYADSVKGRFTISRDNAKNTGYLQMNSLKPEDTAVYFCAATFLRSDGQPPIWGQGTQVTVSS
notes: E. coli periplasmic extract
B13: Llama anti-EpCAM single domain antibody EPL90 (VHH)
VHH: QVQLQESGGGLVQAGGSLRLSCAASGFIFRAASMAWYRQSPGNERELVASISSGAFTNYADSVKARFTISRDNAKNTVYLQMNSLKPEDTAVYFCGATFLRSDGHHTINGQGTQVTVSS
notes: E. coli periplasmic extract
B14: Llama anti-EpCAM single domain antibody EPL60 (VHH)
VHH: QVQLQESGGGLVQAGGSLRLSCAASEYILSMYRMAWYRQAPGKVRELVADMSSGGTTNYADFVKGRFTISRDNDRNTVYLQMNRLQPEDTAAYYCNVAGRTGPPSYDAFNNWGQGTQVTVSS
notes: E. coli periplasmic extract
B15: Llama anti-EpCAM single domain antibody EPL156 (VHH)
VHH: QVQLQESGGGLVQPGASLRVSCAASEYILSMYRMAWYRQAPGKVRELVADMSSGGTTNYADFVKGRFTISRDNDRNTVYLQMNRLQPEDTAAYYCNVAGRTGPPSYDAFNNWGQGTQVTVSS
notes: E. coli periplasmic extract
B16: Llama anti-EpCAM single domain antibody EPL78 (VHH)
VHH: QVQLQESGGGLVQPGGSLRLSCATSANRFNINVMGWYRQAPGQQRELVATINIGGSTDYADSVKGRFTISRDNAKNTVYLQLSDLKPEDTAVYYCNVKLRVSGPTGPNVYWGQGTQVTVSS
notes: E. coli periplasmic extract
B17: Llama anti-EpCAM single domain antibody EPL109 (VHH)
VHH: QVQLQESGGGLVQPGGSLRLSCASSGFTLDDYTIGWFRQAPGKEREGVSCISRRDDSTYYADSVKGRFTISRDNAKNTVDLQMISLRPEDTAVYYCAATPRSYTLRCLGKFDFQGQGTQVTVSS
notes: E. coli periplasmic extract
B18: Llama anti-EpCAM single domain antibody EPL74 (VHH)
VHH: QVQLQESGGGLVQAGGSLRLSCAASGSIFGINAMGWYRQAPGKQRESVAFITIGGNTNYLDSVKGRFTISRDNAKNTVYLQMNGLKPEDTAVYYCNTNPPLILTAGGLYWGQGTQVTVSS
notes: E. coli periplasmic extract
B19: Llama anti-EpCAM single domain antibody EPL49 (VHH)
VHH: QVQLQESGGGLVQAGGSLRLSCAPSGRTSSIFGMGWFRQAPGKEREFVASINWSGGSTSYADSVKGRFTISRDNAKNEMYLQMNSLKFEDTAVYVCAAAVLTNKPSWNFWGQGTQVTVSS
notes: E. coli periplasmic extract
B20: Llama anti-EpCAM single domain antibody EPL189 (VHH)
VHH: QVQLQESGGGLVQPGGSLRLSCAASGRINSINTMGWYRQAPGNQRELVAEITRGGTTNYADSVQGRYAISRDNAKNLVYLQMNSLKPEDTDVYYCNAQTFPTFSRPTGLDYWGQGTQVTVSS
notes: E. coli periplasmic extract
B21: Llama anti-EpCAM single domain antibody EPL83 (VHH)
VHH: QVQLQESGGGLVQAGGSLRLSCAVSGSIFSLNTLAWYRQAPGRQRDLIARITGGGTTVYADSVKGRFTISRDNAKNTVYLQMNSLKPEDTAVYYCNLMVRHPSGSTYEYWGQGTQVTVSS
notes: E. coli periplasmic extract
B22: Llama anti-EpCAM single domain antibody EPL82 (VHH)
VHH: QVQLQESGGGLVQAGGSLKLSCTASGTILSTMAWYRQAPGKQRELVATISRGGTTNYSDSVKGRFAISRDSTKNTVYLQMNSLKPEDTAVYYCNTPLTDYGMGYNWGQGTQVTVSS
notes: E. coli periplasmic extract
B23: Llama anti-EpCAM single domain antibody EPL117 (VHH)
VHH: QVQLQESGGGLVQAGGSLRLSCAASGNIVRMTNMAWYRQAPGKQREFVATISAGGSTTYVDSVKDRFTISRDNTKNTVYLQMNYLKPEDTAVYYCATGSILTNRGAIPGSWGHGTQVTVSS
notes: E. coli periplasmic extract
B24: Llama anti-EpCAM single domain antibody EPL58 (VHH)
VHH: QVQLQESGGGLVQAGGSLRLSCAASGPIFSDTIRTMGWYRQAAGKQRELVATIASFPSRTNYVDSVKGRFTISRDIAKNTVYLQMDSLKPEDTAVYYCNVDLASIPTKTYWGQGTQVTVSS
notes: E. coli periplasmic extract

What was measured:
human EpCAM protein = target: T1, human EpCAM protein; assay: colorimetric ELISA
Description: (§1) Llamas were immunized with purified EpCAM protein expressed in Expi293 cells. A phage display library for expression of heavy variable antibody domains was constructed from circulating B cells. See van der Linden, de Geus, Stok, Bos,van Wassenaar, Verrips, and Frenken. 2000. J Immunol Methods 240:185-195. Phage clones were screened for binding to EpCAM by expressing anti-EpCAM proteins in E coli, preparing periplasmic extracts, and proteins were screened for human and cynomolgus EpCAM binding activity using a colorimetric ELISA.

cynomolgus EpCAM protein = target: T2, cynomolgus EpCAM protein (cynomolgus monkey); assay: colorimetric ELISA
T2 construct: biotinylated in the Octet assays; also called cy EpCAM; cynomolgus monkey EpCAM
T2 sequence (Q1WER1 24-265): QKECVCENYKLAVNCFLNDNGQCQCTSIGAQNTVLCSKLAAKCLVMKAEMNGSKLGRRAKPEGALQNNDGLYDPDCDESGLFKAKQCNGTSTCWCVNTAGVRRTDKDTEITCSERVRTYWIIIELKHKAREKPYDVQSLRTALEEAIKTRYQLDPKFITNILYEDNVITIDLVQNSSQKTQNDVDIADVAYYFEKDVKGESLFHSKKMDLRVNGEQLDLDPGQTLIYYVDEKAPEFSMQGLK
Description: as §1

| Binder | ELISA absorbance (human EpCAM protein) [absorbance] | Human EpCAM/Control (human EpCAM protein) [ratio] | Cynomolgus EpCAM/Control (cynomolgus EpCAM protein) [ratio] | ELISA absorbance (cynomolgus EpCAM protein) [absorbance] |
| --- | --- | --- | --- | --- |
| B1 | 3.4 | 4 | 4 | 2.8 |
| B2 | 2.7 | 12 | 9 | 2 |
| B3 | – | – | 2 | 0.2 |
| B4 | 0.4 | 5 | 11 | 0.9 |
| B5 | 2.2 | 15 | 24 | 3.6 |
| B6 | 1.8 | 13 | 27 | 3.8 |
| B7 | 2.5 | 8 | 5 | 1.7 |
| B8 | 0.6 | 3 | 2 | 0.4 |
| B9 | 0.6 | 7 | 34 | 2.8 |
| B10 | 3.1 | 3 | 3 | 2.7 |
| B11 | 3.4 | 5 | 4 | 2.9 |
| B12 | 3.4 | 5 | 4 | 2.8 |
| B13 | 1.6 | 10 | 10 | 1.7 |
| B14 | 1.1 | 10 | 33 | 3.5 |
| B15 | 3.6 | 16 | 17 | 4 |
| B16 | 3.1 | 17 | 11 | 2 |
| B17 | 0.4 | 5 | 2 | 0.1 |
| B18 | 1.4 | 10 | 5 | 0.7 |
| B19 | 1.1 | 8 | 4 | 0.6 |
| B20 | 1.3 | 12 | 8 | 0.9 |
| B21 | 2 | 3 | 2 | 1.1 |
| B22 | 0.9 | 4 | 5 | 1.1 |
| B23 | 0.9 | 4 | 3 | 0.6 |
| B24 | 1.1 | 8 | 4 | 0.5 |
